Results as given in article PMC12290929, “Analytical and Structural Evaluation of Recombinant Human Serum Albumin and Fragment F8 for Aptamer-Based Urinary Biomarker Detection”.

Legend:
rHSA (E. coli) = rHSA (E. coli) (Homo sapiens, UniProt P02768 25-609); experiment: graphene oxide fluorescence recovery (Cy5 aptasensor); GO-quenched aptamer; protein 0.37-1500 ug/mL; sigmoidal, R2 > 0.99; PBS pH 7.4, graphene oxide (15 uL of 5 mg/mL) + Cy5-H8 (15 uL of 5 uM) preincubated 5 min at room temperature, 200 uL final volume, 30 min with protein in the dark, ex 630/em 670 nm; settings: protein: recombinant; tags: His-tag; label: 5'-Cy5
Chain of rHSA (E. coli) (P02768 25-609): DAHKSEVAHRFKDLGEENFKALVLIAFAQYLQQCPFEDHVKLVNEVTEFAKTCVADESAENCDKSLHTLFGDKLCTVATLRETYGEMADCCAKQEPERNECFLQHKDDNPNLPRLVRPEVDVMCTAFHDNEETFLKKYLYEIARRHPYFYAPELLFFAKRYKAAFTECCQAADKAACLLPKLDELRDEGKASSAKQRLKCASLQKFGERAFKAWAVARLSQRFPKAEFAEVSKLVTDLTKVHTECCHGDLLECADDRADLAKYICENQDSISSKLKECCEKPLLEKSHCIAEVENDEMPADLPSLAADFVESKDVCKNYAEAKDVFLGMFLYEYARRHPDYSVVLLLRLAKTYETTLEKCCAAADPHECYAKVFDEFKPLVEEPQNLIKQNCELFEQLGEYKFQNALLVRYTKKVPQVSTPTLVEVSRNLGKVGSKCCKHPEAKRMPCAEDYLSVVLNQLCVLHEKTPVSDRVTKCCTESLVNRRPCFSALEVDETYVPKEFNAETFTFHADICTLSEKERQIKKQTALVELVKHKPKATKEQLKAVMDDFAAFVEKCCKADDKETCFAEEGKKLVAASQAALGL

rF8 (HSA fragment F8) = rF8 (HSA fragment F8) (Homo sapiens, UniProt P02768); experiment: graphene oxide fluorescence recovery (Cy5 aptasensor); GO-quenched aptamer; protein 0.37-1500 ug/mL; sigmoidal, R2 > 0.99; response comparable to full-length rHSA; PBS pH 7.4, graphene oxide (15 uL of 5 mg/mL) + Cy5-H8 (15 uL of 5 uM) preincubated 5 min at room temperature, 200 uL final volume, 30 min with protein in the dark, ex 630/em 670 nm; settings: protein: recombinant; tags: His-tag; label: 5'-Cy5
Chain of rF8 (HSA fragment F8) (P02768 520-609): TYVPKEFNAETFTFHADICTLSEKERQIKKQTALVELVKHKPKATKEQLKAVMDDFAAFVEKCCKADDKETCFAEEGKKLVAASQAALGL

rHSA (rice) = rHSA (rice) (Homo sapiens, UniProt P02768 25-609); experiment: graphene oxide fluorescence recovery (Cy5 aptasensor); GO-quenched aptamer; protein 0.37-1500 ug/mL; sigmoidal, R2 > 0.99; lower fluorescence than E. coli proteins; PBS pH 7.4, graphene oxide (15 uL of 5 mg/mL) + Cy5-H8 (15 uL of 5 uM) preincubated 5 min at room temperature, 200 uL final volume, 30 min with protein in the dark, ex 630/em 670 nm; settings: protein: commercial; label: 5'-Cy5
Chain of rHSA (rice) (P02768 25-609): as the sequence (P02768 25-609) above

Measured: binding result

B1: H8 aptamer (ssDNA)
DNA: ATACCAGCTTATTCAATTCCCCCGGCTTTGGTTTAGAGGTAGTTGCTCATTACTTGTACGCTCCGGATGAGATAGTAAGTGCAATCT
binds: all assays above
